{"source": "paper PMC11602973", "about": "“Structural basis of nucleic acid recognition by the N-terminal cold shock domain of the plant glycine-rich protein AtGRP2”", "binders": {"B1": {"name": "T7 (ssDNA)", "DNA": "TTTTTTT"}, "B2": {"name": "Rho-T7 (ssDNA)", "DNA": "TTTTTTT"}, "B3": {"name": "G7 (ssDNA)", "DNA": "GGGGGGG"}, "B4": {"name": "A7 (ssDNA)", "DNA": "AAAAAAA"}, "B5": {"name": "Rho-U7 (ssRNA)", "RNA": "UUUUUUU"}}, "key": {"[1]": {"molecular_target": "T1, AtGRP2-CSD1-79 (Arabidopsis thaliana, UniProt Q41188 1-79)", "T1 sequence": "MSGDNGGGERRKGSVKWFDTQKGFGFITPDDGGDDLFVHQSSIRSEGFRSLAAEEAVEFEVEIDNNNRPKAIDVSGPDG", "assay": "intrinsic Trp fluorescence quenching; 20 mM sodium phosphate pH 6.5, 50 mM NaCl, 25 C (fluorescence); NMR titrations in the same buffer plus 250 uM PMSF, 3 mM NaN3, 5% D2O, 298 K", "conditions": "protein: recombinant; tags: N-terminal Trx(6 aa)-His6-TEV tag, cleaved"}, "[2]": {"molecular_target": "T2, AtGRP2-CSD1-90 H39A (Arabidopsis thaliana, UniProt Q41188 1-90, H39A)", "T2 sequence": "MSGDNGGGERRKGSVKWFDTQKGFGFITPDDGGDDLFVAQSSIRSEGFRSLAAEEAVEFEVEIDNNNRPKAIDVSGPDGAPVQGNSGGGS", "assay": "fluorescence anisotropy; 20 mM sodium phosphate pH 6.5, 50 mM NaCl, 25 C (fluorescence); NMR titrations in the same buffer plus 250 uM PMSF, 3 mM NaN3, 5% D2O, 298 K", "conditions": "protein: recombinant; tags: N-terminal Trx(6 aa)-His6-TEV tag, cleaved; label: 5'-rhodamine"}, "[3]": {"molecular_target": "T3, AtGRP2-CSD1-90 WT (Arabidopsis thaliana, UniProt Q41188 1-90)", "T3 sequence": "T2 sequence with A39H", "assay": "fluorescence anisotropy; 20 mM sodium phosphate pH 6.5, 50 mM NaCl, 25 C (fluorescence); NMR titrations in the same buffer plus 250 uM PMSF, 3 mM NaN3, 5% D2O, 298 K", "conditions": "protein: recombinant; tags: N-terminal Trx(6 aa)-His6-TEV tag, cleaved; label: 5'-rhodamine"}, "[4]": {"molecular_target": "T4, AtGRP2-CSD1-90 R49A (Arabidopsis thaliana, UniProt Q41188 1-90, R49A)", "T4 sequence": "T2 sequence with A39H, R49A", "assay": "fluorescence anisotropy; 20 mM sodium phosphate pH 6.5, 50 mM NaCl, 25 C (fluorescence); NMR titrations in the same buffer plus 250 uM PMSF, 3 mM NaN3, 5% D2O, 298 K", "conditions": "protein: recombinant; tags: N-terminal Trx(6 aa)-His6-TEV tag, cleaved; label: 5'-rhodamine"}, "[5]": {"molecular_target": "T5, AtGRP2-CSD1-90 F48A (Arabidopsis thaliana, UniProt Q41188 1-90, F48A)", "T5 sequence": "T2 sequence with A39H, F48A", "assay": "fluorescence anisotropy; 20 mM sodium phosphate pH 6.5, 50 mM NaCl, 25 C (fluorescence); NMR titrations in the same buffer plus 250 uM PMSF, 3 mM NaN3, 5% D2O, 298 K", "conditions": "protein: recombinant; tags: N-terminal Trx(6 aa)-His6-TEV tag, cleaved; label: 5'-rhodamine"}, "[6]": {"molecular_target": "T6, AtGRP2-CSD1-90 F26A (Arabidopsis thaliana, UniProt Q41188 1-90, F26A)", "T6 sequence": "T2 sequence with F26A, A39H", "assay": "fluorescence anisotropy; no saturation; text: binding abolished; 20 mM sodium phosphate pH 6.5, 50 mM NaCl, 25 C (fluorescence); NMR titrations in the same buffer plus 250 uM PMSF, 3 mM NaN3, 5% D2O, 298 K", "conditions": "protein: recombinant; tags: N-terminal Trx(6 aa)-His6-TEV tag, cleaved; label: 5'-rhodamine"}, "[7]": {"molecular_target": "T7, AtGRP2-CSD1-90 W17A (Arabidopsis thaliana, UniProt Q41188 1-90, W17A)", "T7 sequence": "T2 sequence with W17A, A39H", "assay": "fluorescence anisotropy; no saturation; text: binding abolished; 20 mM sodium phosphate pH 6.5, 50 mM NaCl, 25 C (fluorescence); NMR titrations in the same buffer plus 250 uM PMSF, 3 mM NaN3, 5% D2O, 298 K", "conditions": "protein: recombinant; tags: N-terminal Trx(6 aa)-His6-TEV tag, cleaved; label: 5'-rhodamine"}, "[8]": {"molecular_target": "T8, AtGRP2-CSD1-90 F37A (Arabidopsis thaliana, UniProt Q41188 1-90, F37A)", "T8 sequence": "T2 sequence with F37A, A39H", "assay": "fluorescence anisotropy; no saturation; text: binding abolished; 20 mM sodium phosphate pH 6.5, 50 mM NaCl, 25 C (fluorescence); NMR titrations in the same buffer plus 250 uM PMSF, 3 mM NaN3, 5% D2O, 298 K", "conditions": "protein: recombinant; tags: N-terminal Trx(6 aa)-His6-TEV tag, cleaved; label: 5'-rhodamine"}, "[9]": {"molecular_target": "T3, AtGRP2-CSD1-90 WT", "assay": "NMR HSQC titration; up to 2x molar excess; 20 mM sodium phosphate pH 6.5, 50 mM NaCl, 25 C (fluorescence); NMR titrations in the same buffer plus 250 uM PMSF, 3 mM NaN3, 5% D2O, 298 K", "conditions": "protein: recombinant; tags: N-terminal Trx(6 aa)-His6-TEV tag, cleaved"}}, "note": "Substitutions are numbered along the chain they refer to.", "data": [{"binder": "B1", "values": [{"measurement": "Kd", "setting": "[1]", "value": "22 ± 2.4", "unit": "µM"}]}, {"binder": "B2", "values": [{"measurement": "Kd", "setting": "[2]", "value": "210 ± 36.8", "unit": "µM"}, {"measurement": "Kd", "setting": "[3]", "value": "17.2 ± 2.4", "unit": "µM"}, {"measurement": "Kd", "setting": "[4]", "value": "45.7 ± 6.8", "unit": "µM"}, {"measurement": "Kd", "setting": "[5]", "value": "38.6 ± 6.3", "unit": "µM"}, {"measurement": "binding result", "setting": "[6]", "value": "no binding"}, {"measurement": "binding result", "setting": "[7]", "value": "no binding"}, {"measurement": "binding result", "setting": "[8]", "value": "no binding"}]}, {"binder": "B3", "values": [{"measurement": "binding result", "setting": "[9]", "value": "no binding"}]}, {"binder": "B4", "values": [{"measurement": "binding result", "setting": "[9]", "value": "no binding"}]}, {"binder": "B5", "values": [{"measurement": "Kd", "setting": "[3]", "value": "76.8 ± 9.7", "unit": "µM"}]}]}
